Measurements taken from a protein production outcome set (Wang et al. 2014).

Experiment: label from the status in PepcDB records

Sequence	protein production
MANPLYHKHIISINDLSRDELELVLRTAASLKKTPQPELLKHKVIASCFFEASTRTRLSFETSIHRLGASVVGFSDSSNTSLGKKGETLADTMSVISTYVDAIVMRHPQEGASRLAAQFSGNVPIVNAGDGANQHPTQTLLDLFTIQETQGRLDNINIAMVGDLKYGRTVHSLTQALAKFNGNHFFFIAPDALAMPAYILQMLEEKEIEYSLHESLEEVVPELDILYMTRVQKERLDPSEYANVKAQFILRSSDLTGARDNLKVLHPLPRIDEITTDVDKTPYAYYFQQAGNGIFARQALLALVLNAELAL	not failed
MANPNEAYRHYMKKLSYETDIADLSIDIKKGYEGIIVVDVRDAEAYKECHIPTAISIPGNKINEDTTKRLSKEKVIITYCWGPACNGATKAAAKFAQLGFRVKELIGGIEYWRKENGEVEGTLGAKADLFWNMKKESLEHHHHHH	not failed
MANSETSLQARLWKTLSQSPDVRLWRNNVGTCKAADGRFVRFGLCPGSSDLIGLTRVTITPDMVGQTIALFTAIEVKTPTGRVTPEQQSFIDFVQRSGGRAGVARSMQDANKIISGEGHVLEHHHHHH	failed
MANSITADEIREQFSQAMSAMYQQEVPQYGTLLELVADVNLAVLENNPQLHEKMVNADELARLNVERHGAIRVGTAQELATLRRMFAIMGMYPVSYYDLSQAGVPVHSTAFRPIDDASLARNPFRVFTSLLRLELIENEILRQKAAEILRQRDIFTPRCRQLLEEYEQQGGFNETQAQEFVQEALETFRWHQSATVDEETYRALHNEHRLIADVVCFPGCHINHLTPRTLDIDRVQSMMPECGIEPKILIEGPPRREVPILLRQTSFKALEETVLFAGQKQGTHTARFGEIEQRGVALTPKGRQLYDDLLRNAGTGQDNLTHQMHLQETFRTFPDSEFLMRQQGLAWFRYRLTPSGEAHRQAIHPGDDPQPLIERGWVVAQPITYEDFLPVSAAGIFQSNLGNETQTRSHGNASREAFEQALGCPVLDEFQLYQEAEERSKRRCGLLLEHHHHHH	not failed
MANVKLLLPYILKWEGGFVHDPADAGGATNKGVTIATWKRVGYDKDGDGDIDVEDLKLLTDDDVLNRVLKPFYWDRWKADLIESQKVANILVDWVWGSGKYGIVIPQRILGVQADGIVGNKTLQAVNSADPDELFESIFDARREFLEDITARSIKKYEDSIGRKATERELLRHTNKRFLRGWLNRLEDIRKL	not failed
MANYEFSQVSGDRPGCRLSRKAQIGLGVGLLVLIALVVGIVVILLRPRSLLVWTGEPTTKHFSDIFLGRCLIYTQILRPEMRDQNCQEILSTFKGAFVSKNPCDITREDYAPLVKLVTQTIPCDKTLFWSKSKHLAHQYTWIQGKMFTLEDTLLGYIADDLRWCGDPSTSDMNYVSCPHWSENCPNNPITMFWKVISQKFAEDACGVVQVMLDGSLREPFYKDSTFGSVEVFSLDPNKVHKLQAWVMHDIEGASSNACSSSSLNELKMIVQKRNMIFACVDNYRPARFLQCVKNPEHPSCRLNT	not failed
MAPAEPACRCAAAPCSSMIGIDRGSAARLILFRKTFYNIEHTFGRLIVASDLRGLAKYVEPGIRLAVPVDYAGVSMAMTRPIIERKAGNLHLICVPTGGLQVDQLIGSGLVRTVETSAVTLGEAGGAPRFNAAVKDGSIKLMDATCPAIHAGLMAAQKGSPFMPMRGLIGSDILRHRKDWRVIDNPLSDGGDPVVLIPAIKPDVTIFHAPMADRFGNVWIGRRRELAAMAYASATTLVTVERIVEESLLANEITAAGVLPAIYVTEVALAPKGAWPYGLWGEYQTDTQELVRYARAARTAEGFADYMATTQMEPA	failed
MAPDASTALAAREKVQQILNAACTGNLEFLKNVAKQLDEGKDLTKTVESIKDANKRGALHFAAREGQTEICRYLLEELKLNADAKDETGDTPLVHAARQGQIETVKYLLEQGADPNIASELGATALHHAAGTGEIELLKELLSRGVPVDSESESGTPLIWAAGHDQKNAVEVLLEHNANPNAETEDNITPLLSAVAAGSLSCLELLVKAGAKANVFAGGATPLHIAADIGNLELINCLLKAGADPNQKDEEGNRPLEVAAARDNRKVVEILFPLTTKPETVSDWTVDGILAHMESNKEQEENSNKAKSQETGIKKDLPVVSPEAKAKAAEAKARGQDAFHRKDFQMAIDAYTQAIDFDPTDHTLFSNRSLCWLRLGQAEHALSDAKACRELNPDWPKGCFREGAALRLLQRFDEAANAFYEGVLLSPESKELIDAFREAVDAGRKFHGKGEVKAKS	failed
MAPRYDTLFYDGSCPLCAREIRTLRRLQTGNLIFADIHEQNPSNQQLPSREQLLRRLHLMSWNGEWVTGLHANVRAWSHTRFGWLFKPLLWPVIHPIASRIYETWADKRYGRKYACAMGHENSCPPGT	failed
